Measurements as given in doi:10.1101/2023.05.10.540161 (bioRxiv, 2023).

Biological target: the molecule itself
Assay: crystal structure; His6-CENP-E 2452-2598 at 11 mg/ml, crystallized in 0.2 M potassium citrate tribasic monohydrate, 20% w/v PEG 3350 pH 8.3, room temperature; a CENP-E dimer in the asymmetric unit

B1: His6-CENP-E_(2452-2598) (domain or fragment, human, UniProt Q02224-1 2452-2598, looked up)
chain: PYKEEIEDLKMKLVKIDLEKMKNAKEFEKEISATKATVEYQKEVIRLLRENLRRSQQAQDTSVISEHTDPQPSNKPLTCGGGSGIVQNTKALILKSEHIRLEKEISKLKQQNEQLIKQKNELLSNNQHLSNEVKTWKERTLKREAHK
notes: CENP-E (kinesin-7), human, residues 2452-2598, from CENP-E transcript variant 1 (NM_001813.2); in the crystal only K2454 to S2506 were seen (likely C-terminal degradation during crystallization); Cloned into pET3aTr; also called minimal corona targeting domain; corona-targeting domain of CENP-E; source: E. coli BL21, purified as previously described (Legal et al., 2020)
- stoichiometry N: 2
